The values that follow come from PMC8967061, “Mechanism of Borrelia immune evasion by FhbA-related proteins” (PLoS Pathogens, 2022).

One may read the Kd as the equilibrium constant for the complex coming apart. A high value points to lower affinity.

The chains are these.
B1: Factor H binding protein A (FhbA) from Borrelia hermsii, wild type (domain or fragment)
chain: LKTLDNLLKTLDNNQKQALIYFKDKLQDKKYLNDLMEQQKSFLDNLQKKKEDPDLQDRLKKTLNSEYDESQFNKLLNELGNAKAKQFLQQLHIMLQSIKDGTLTSFSSSNFNDLQNLEQKKERALQYINGKLYVEYYFYINGISNADNFFETIMEYLKT
notes: FhbA of Borrelia hermsii strain YOR, without its leader peptide, residues 44-202; also called BhFhbA; Wild type BhFhbA; source: E. coli BL21 (DE), purified (Ni-NTA, size-exclusion chromatography)

Holding throughout (details): both partners purified
The target in one assay is T1, Factor H, full length (human, UniProt P08603 19-1231, RED-tris-NTA dye label (in the MST assays only)).
T1 construct: human complement factor H, 20 short consensus repeat domains; In the functional assays FH was that of whole blood or serum; also called FH; full-length FH; source: bought: Comptech (Complement Technologies), TX, USA
Kind of assay: MST; full-length FH labelled with RED-tris-NTA dye, FhbA proteins titrated, PBS/0.025% Tween-20, 22 C.

The target of another assay is T2, BhFhbA Glu198Ala (Borrelia hermsii YOR, UniProt W5SB08 44-202, Glu198Ala).
T2 construct: FhbA of Borrelia hermsii strain YOR, residues 44-202 as the wild type construct, single alanine mutant; also called #10; source: E. coli BL21 (DE), purified (Ni-NTA, size-exclusion chromatography)
T2 sequence (looked up): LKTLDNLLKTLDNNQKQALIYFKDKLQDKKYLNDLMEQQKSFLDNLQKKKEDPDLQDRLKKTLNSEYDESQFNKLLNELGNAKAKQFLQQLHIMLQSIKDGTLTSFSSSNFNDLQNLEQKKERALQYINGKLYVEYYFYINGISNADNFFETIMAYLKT
Put plainly: MST; FH19-20 labelled with RED-tris-NTA dye (300 nM stock, mixed 1:1 with ligand), FhbA proteins titrated, PBS/0.025% Tween-20, 22 C.

For another assay, the target named is T3, BhFhbA Glu178Ala (Borrelia hermsii YOR, UniProt W5SB08 44-202, Glu178Ala).
T3 construct: FhbA of Borrelia hermsii strain YOR, residues 44-202 as the wild type construct, single alanine mutant; source: E. coli BL21 (DE), purified (Ni-NTA, size-exclusion chromatography)
T3 sequence (looked up): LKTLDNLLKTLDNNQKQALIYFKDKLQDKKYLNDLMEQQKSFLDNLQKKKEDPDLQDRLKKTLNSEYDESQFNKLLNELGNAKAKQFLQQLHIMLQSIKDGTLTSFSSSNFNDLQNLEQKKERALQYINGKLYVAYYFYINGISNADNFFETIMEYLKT
The assay is described as above.

The target in assay [1] is B1. Described as above.
The target of another assay is T4, BhFhbA Asn153Ala (Borrelia hermsii YOR, UniProt W5SB08 44-202, Asn153Ala).
T4 construct: FhbA of Borrelia hermsii strain YOR, residues 44-202 as the wild type construct, single alanine mutant; source: E. coli BL21 (DE), purified (Ni-NTA, size-exclusion chromatography)
T4 sequence (looked up): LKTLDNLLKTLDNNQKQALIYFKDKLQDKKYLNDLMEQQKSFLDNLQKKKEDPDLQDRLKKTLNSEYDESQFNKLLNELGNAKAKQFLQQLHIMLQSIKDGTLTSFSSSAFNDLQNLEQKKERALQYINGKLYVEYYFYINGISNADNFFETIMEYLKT
The assay is described as above.

The next assay deals with T5, BhFhbA Met137Ala (Borrelia hermsii YOR, UniProt W5SB08 44-202, Met137Ala).
T5 construct: FhbA of Borrelia hermsii strain YOR, residues 44-202 as the wild type construct, single alanine mutant; also called #4; source: E. coli BL21 (DE), purified (Ni-NTA, size-exclusion chromatography)
T5 sequence (looked up): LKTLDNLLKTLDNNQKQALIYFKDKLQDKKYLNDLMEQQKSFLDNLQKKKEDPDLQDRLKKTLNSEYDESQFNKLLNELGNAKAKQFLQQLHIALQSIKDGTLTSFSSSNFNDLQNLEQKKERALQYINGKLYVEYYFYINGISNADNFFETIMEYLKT
Described as above.

A further assay has as its target T6, BhFhbA Phe181Ala (Borrelia hermsii YOR, UniProt W5SB08 44-202, Phe181Ala).
T6 construct: FhbA of Borrelia hermsii strain YOR, residues 44-202 as the wild type construct, single alanine mutant; also called #9; source: E. coli BL21 (DE), purified (Ni-NTA, size-exclusion chromatography)
T6 sequence (looked up): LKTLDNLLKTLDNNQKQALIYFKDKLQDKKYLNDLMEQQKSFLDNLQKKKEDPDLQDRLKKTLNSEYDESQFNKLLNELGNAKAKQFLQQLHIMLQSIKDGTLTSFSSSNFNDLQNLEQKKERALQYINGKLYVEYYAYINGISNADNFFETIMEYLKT
The assay is described as above.

The target of a further assay is T7, BhFhbA Lys91Ala (Borrelia hermsii YOR, UniProt W5SB08 44-202, Lys91Ala).
T7 construct: FhbA of Borrelia hermsii strain YOR, residues 44-202 as the wild type construct, single alanine mutant; also called #3; source: E. coli BL21 (DE), purified (Ni-NTA, size-exclusion chromatography)
T7 sequence (looked up): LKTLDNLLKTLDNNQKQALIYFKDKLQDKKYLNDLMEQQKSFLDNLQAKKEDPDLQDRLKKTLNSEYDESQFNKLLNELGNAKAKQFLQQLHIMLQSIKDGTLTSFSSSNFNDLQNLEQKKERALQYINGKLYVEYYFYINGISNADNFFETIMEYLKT
The description is as above.

A further assay addresses T8, BhFhbA Ile171Ala (Borrelia hermsii YOR, UniProt W5SB08 44-202, Ile171Ala).
T8 construct: FhbA of Borrelia hermsii strain YOR, residues 44-202 as the wild type construct, single alanine mutant; source: E. coli BL21 (DE), purified (Ni-NTA, size-exclusion chromatography)
T8 sequence (looked up): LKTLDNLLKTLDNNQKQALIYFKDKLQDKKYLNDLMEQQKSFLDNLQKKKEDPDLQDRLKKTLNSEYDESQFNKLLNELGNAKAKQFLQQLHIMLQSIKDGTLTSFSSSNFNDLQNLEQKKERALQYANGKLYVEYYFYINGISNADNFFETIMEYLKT
The assay is described as above.

The target in another assay is T9, BhFhbA Asn88Ala (Borrelia hermsii YOR, UniProt W5SB08 44-202, Asn88Ala).
T9 construct: FhbA of Borrelia hermsii strain YOR, residues 44-202 as the wild type construct, single alanine mutant; also called #2; source: E. coli BL21 (DE), purified (Ni-NTA, size-exclusion chromatography)
T9 sequence (looked up): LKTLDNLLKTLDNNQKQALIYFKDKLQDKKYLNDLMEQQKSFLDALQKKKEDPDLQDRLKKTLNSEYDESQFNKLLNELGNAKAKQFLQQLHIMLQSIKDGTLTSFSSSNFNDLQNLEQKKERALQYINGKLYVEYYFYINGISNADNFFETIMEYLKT
The description is as above.

A further assay addresses T10, BhFhbA Phe85Ala (Borrelia hermsii YOR, UniProt W5SB08 44-202, Phe85Ala).
T10 construct: FhbA of Borrelia hermsii strain YOR, residues 44-202 as the wild type construct, single alanine mutant; also called #1; source: E. coli BL21 (DE), purified (Ni-NTA, size-exclusion chromatography)
T10 sequence (looked up): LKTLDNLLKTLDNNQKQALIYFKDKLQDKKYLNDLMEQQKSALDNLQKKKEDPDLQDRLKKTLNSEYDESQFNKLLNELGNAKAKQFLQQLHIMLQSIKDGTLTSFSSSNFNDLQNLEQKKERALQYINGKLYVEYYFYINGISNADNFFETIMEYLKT
The description is as above.

In the assay with Factor H, full length, B1 came in with a Kd of 30 nM. This lies in the double-digit nanomolar range.

B2: Factor H domains 19-20 (domain or fragment)
chain: DSTGKCGPPPPIDNGDITSFPLSVYAPASSVEYQCQNLYQLEGNKRITCRNGQWSEPPKCLHPCVISREIMENYNIALRWTAKQKLYSRTGESVEFVCKRGYRLSSRSHTLRTTCWDGKLEYPTCAKR
modifications: RED-tris-NTA dye label (in the MST assays only)
notes: human complement factor H, short consensus repeat domains 19-20, wild type; also called FH19-20; FH19-20 fragment
As for B2, the equilibrium dissociation constant (Kd) in the assay with BhFhbA Glu198Ala stood at 130 nM; in the assay with BhFhbA Glu178Ala, 100 nM; in [1], 82 nM; in the assay with BhFhbA Asn153Ala it was 73 nM; in the assay with BhFhbA Met137Ala, 1000 nM; in the assay with BhFhbA Phe181Ala, 33 nM. Besides, the dissociation constant Kd with BhFhbA Lys91Ala amounted to 110 nM; with BhFhbA Ile171Ala it was 380 nM; with BhFhbA Asn88Ala it was 110 nM; in the assay with BhFhbA Phe85Ala, 110 nM.
